Laboratory results: the supplement of paper PMC7877785
± gives the uncertainty stated by the source.

Assay: self-splicing fitness, log relative to wild type (ln ratio); higher = more splicing; Tetrahymena group I intron in knt gene, E. coli kanamycin selection, DiMSum; sequences stand for … in CUCUCU…GGAGGGAAAAGUUAUCAGGCAUGCACCUGGUAGCUAGUCUUUAAACCAAUAGAUUGCAUCGGUUUAAAAGGCAAGACCGUCAAAUUGCGGGAAAGGGGUCAACAGCCGUUCAGUACCAAGUCUCAGGGGAAACUUUGAGAUGGCCUUGCAAAGGGUAUGGUAAUAAGCUGACGGACAUGGUCCUAACCACGCAGCCAAGUCCUAAGUCAACAGAUCUUCUGUUGAUAUGGAUGCAGUUCACAGACUAAAUGUCGGUCGGGGAAGAUGUAUUCUUCUCAUAAGAUAUAGUCGGACCUCUCCUUAAUGGGAGCUAGCGGAUGAAGUGAUGCAACACUGGAGCCGCUGGGAACUAAUUUGUAUGCGAAAGUAUAUUGAUUAGUUUUGGAGUACUCGUGGUCG
Outline: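 Colonies from six replicate transformations of E. coli BL21(DE3) were pooled and amplicon-sequenced on an Illumina HiSeq 2500. The library placed an intron with all eight P1ex-region nucleotides randomised inside the knt kanamycin-resistance gene on pET-22b(+), and cells grew overnight at 37°C or 30°C on LB agar with or without 25 μg/mL kanamycin (plus 100 μg/mL carbenicillin, 50 μM IPTG, 0.2% rhamnose). Fitness is the DiMSum error-weighted combination of wild-type-normalised replicate fold changes, kanamycin versus none.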

| Sequence | self-splicing fitness (ln) (30 °C) | self-splicing fitness (ln) (37 °C) |
| --- | --- | --- |
| AACUAGCAAUAUUACGAAAU | -2.01 ± 0.09 | -0.94 ± 0.1 |
| AAUAAGCAAUAUUACGCUUU | -3.49 ± 0.21 | -3.26 ± 0.23 |
| GACAAGCAAUAUUACGGUGU | -3.98 ± 0.13 | -1.9 ± 0.11 |
| GUCUAGCAAUAUUACGGCUA | – | -2.64 ± 0.33 |
| CUUCAGCAAUAUUACGUAGU | -4 ± 0.16 | -2.5 ± 0.19 |
| UGAUAGCAAUAUUACGAGUU | -3.82 ± 0.24 | -2.73 ± 0.21 |
| AGAGAGCAAUAUUACGACCU | -1.59 ± 0.18 | -0.651 ± 0.26 |
| AGCCAGCAAUAUUACGUACC | -2.95 ± 0.25 | -0.263 ± 0.13 |
| UACAAGCAAUAUUACGACAU | -1.474 ± 0.012 | -0.59 ± 0.032 |
| GAGAAGCAAUAUUACGACGG | -3.47 ± 0.29 | -1.97 ± 0.23 |
| AUCGAGCAAUAUUACGUUAU | -3.5 ± 0.26 | -2.59 ± 0.28 |
| CCUAAGCAAUAUUACGAGCA | -2.92 ± 0.3 | -3.08 ± 0.35 |
| CGUCAGCAAUAUUACGGCAU | -0.76 ± 0.074 | -0.608 ± 0.081 |
| UACCAGCAAUAUUACGGCAG | -0.582 ± 0.081 | 0.685 ± 0.1 |
| CGGGAGCAAUAUUACGCGGG | -4.1 ± 0.37 | -2.83 ± 0.3 |
| CUCAAGCAAUAUUACGCAUG | -4.22 ± 0.36 | -1.65 ± 0.18 |
| UCCGAGCAAUAUUACGCUGG | -3.33 ± 0.21 | -1.56 ± 0.19 |
| UUAAAGCAAUAUUACGUAUU | -3.28 ± 0.15 | -2.75 ± 0.2 |
| CUGGAGCAAUAUUACGGGUU | -2.29 ± 0.18 | -2.91 ± 0.28 |
| UUUUAGCAAUAUUACGCGUA | -1.57 ± 0.13 | -1.22 ± 0.12 |
| CGCUAGCAAUAUUACGAUUA | -3.34 ± 0.35 | -2.73 ± 0.31 |
| AUUAAGCAAUAUUACGUGCG | -0.862 ± 0.091 | 0.0786 ± 0.13 |
| AACUAGCAAUAUUACGUGGU | -3.36 ± 0.16 | -2.86 ± 0.23 |
| UUUGAGCAAUAUUACGUUGA | – | -1.92 ± 0.33 |
| UAGAAGCAAUAUUACGUUCA | -0.483 ± 0.063 | 0.196 ± 0.082 |
| UACUAGCAAUAUUACGGUAU | -2.78 ± 0.33 | -2.63 ± 0.36 |

| Sequence | self-splicing fitness (ln) (30 °C) | self-splicing fitness (ln) (37 °C) |
| --- | --- | --- |
| CCAAAGCAAUAUUACGCAUU | -3.34 ± 0.26 | -3.55 ± 0.46 |
| UCCAAGCAAUAUUACGCGGC | -2.74 ± 0.23 | -2.94 ± 0.23 |
| CCAAAGCAAUAUUACGAGAG | -2.24 ± 0.23 | -1.91 ± 0.2 |
| UUUAAGCAAUAUUACGAUUA | -0.637 ± 0.1 | -0.207 ± 0.11 |
| AGGAAGCAAUAUUACGAUGA | -0.649 ± 0.13 | -0.773 ± 0.17 |
| AAUCAGCAAUAUUACGUUGA | -0.828 ± 0.086 | -0.22 ± 0.1 |
| GAAGAGCAAUAUUACGCCGG | -2.66 ± 0.18 | -2.5 ± 0.29 |
| GCUUAGCAAUAUUACGCGUA | -1.39 ± 0.16 | -1.71 ± 0.17 |
| UGUCAGCAAUAUUACGUGAU | -2.85 ± 0.13 | -1.81 ± 0.14 |
| GAGAAGCAAUAUUACGAGGC | -3.35 ± 0.21 | -1.78 ± 0.17 |
| UCCUAGCAAUAUUACGCGAG | -3.06 ± 0.27 | -3.22 ± 0.37 |
| UUAAAGCAAUAUUACGUUUA | -0.747 ± 0.068 | -0.409 ± 0.09 |
| CUAUAGCAAUAUUACGUUUA | -3.4 ± 0.36 | -1.74 ± 0.19 |
| CUGAAGCAAUAUUACGACCC | -2.58 ± 0.38 | – |
| UAGUAGCAAUAUUACGUCCG | -0.377 ± 0.21 | -0.323 ± 0.36 |
| GACAAGCAAUAUUACGAGGC | -2.4 ± 0.16 | -2.76 ± 0.32 |
| UUCCAGCAAUAUUACGGGCU | -4.67 ± 0.31 | -2.18 ± 0.17 |
| UUACAGCAAUAUUACGUCAU | -3.77 ± 0.2 | -1.18 ± 0.12 |
| UUAGAGCAAUAUUACGUAGG | -2.7 ± 0.14 | -1.5 ± 0.15 |
| UGAGAGCAAUAUUACGUUGG | – | -3 ± 0.27 |
| CCUUAGCAAUAUUACGCGCG | -2.71 ± 0.39 | -3.39 ± 0.42 |
| AUACAGCAAUAUUACGUAAU | -1.43 ± 0.085 | -0.584 ± 0.12 |
| UCAAAGCAAUAUUACGUAAC | -3.86 ± 0.21 | -2.39 ± 0.27 |
| CGAUAGCAAUAUUACGUAGG | -0.695 ± 0.056 | -0.444 ± 0.068 |
| CGGAAGCAAUAUUACGCGCC | – | -0.393 ± 0.27 |
| GCGGAGCAAUAUUACGACAU | -1.38 ± 0.016 | -0.573 ± 0.035 |

| Sequence | self-splicing fitness (ln) (30 °C) | self-splicing fitness (ln) (37 °C) |
| --- | --- | --- |
| GACCAGCAAUAUUACGAUAU | -0.781 ± 0.072 | -0.235 ± 0.086 |
| AAUUAGCAAUAUUACGGACG | -1.29 ± 0.16 | 0.266 ± 0.12 |
| GUAAAGCAAUAUUACGUUAC | -1.15 ± 0.14 | -1.91 ± 0.21 |
| UAACAGCAAUAUUACGACCG | -0.596 ± 0.09 | -0.323 ± 0.11 |
| CGUGAGCAAUAUUACGGGAG | -3.67 ± 0.24 | -2.52 ± 0.19 |
| ACCAAGCAAUAUUACGGUCG | -3.81 ± 0.22 | -2.56 ± 0.15 |
| CGACAGCAAUAUUACGCGCC | -2.02 ± 0.13 | -0.187 ± 0.17 |
| CGGAAGCAAUAUUACGCAAA | – | -2.55 ± 0.33 |
| UCAUAGCAAUAUUACGGUUG | -3.07 ± 0.19 | -1.94 ± 0.17 |
| UAGAAGCAAUAUUACGGACU | -1.29 ± 0.13 | 0.474 ± 0.11 |
| ACAGAGCAAUAUUACGGGCC | -1.79 ± 0.29 | – |
| AGAUAGCAAUAUUACGUAGC | -2.88 ± 0.22 | -2.16 ± 0.24 |
| CUCAAGCAAUAUUACGUAUU | -3.74 ± 0.19 | -2.58 ± 0.21 |
| GCUUAGCAAUAUUACGAGUG | -0.38 ± 0.096 | -0.545 ± 0.11 |
| UAGCAGCAAUAUUACGGCAA | -0.772 ± 0.16 | 0.622 ± 0.19 |
| UGCCAGCAAUAUUACGGCGG | -3.73 ± 0.18 | -1.48 ± 0.13 |
| GAGUAGCAAUAUUACGGUUC | -1.02 ± 0.12 | -2.36 ± 0.3 |
| ACAAAGCAAUAUUACGAGCG | -0.894 ± 0.084 | 0.57 ± 0.096 |
| GAACAGCAAUAUUACGCCUG | -1.85 ± 0.13 | 0.185 ± 0.13 |
| AUUAAGCAAUAUUACGUUGC | -3.29 ± 0.23 | -3.01 ± 0.37 |
| UGCCAGCAAUAUUACGAAAU | -2.86 ± 0.2 | -1.81 ± 0.17 |
| CUAAAGCAAUAUUACGGUUU | -3.29 ± 0.2 | -2.81 ± 0.28 |
| GUUUAGCAAUAUUACGAACG | -1.78 ± 0.21 | -1.03 ± 0.29 |
| UCGGAGCAAUAUUACGGCGA | -1.1 ± 0.18 | -0.689 ± 0.23 |
| GUCUAGCAAUAUUACGUAUC | -0.834 ± 0.08 | 0.353 ± 0.11 |
